Source: paper PMC9287160
Residue numbers refer to the chain shown, from its start. Numbers in names are those of the source.

B1: nanobody hCD11bNb1 (His-tagged) N101A (protein)
chain: QVQLVETGGGLVQAGGSLRLSCAASGNINSFNAMGWFRQAPGKQRELVAAITFGGRTNYADSVKGRFTISRDNTKGSVYLQMNSLKPEDTAVYYCAASEANLLTGVWHYWGRGTQVTVSS
B2: nanobody hCD11bNb1 (His-tagged) F54A (protein)
chain: B1 chain with F53A, A100N
B3: nanobody hCD11bNb1 (His-tagged) F32A (protein)
chain: B1 chain with F31A, A100N
B4: nanobody hCD11bNb1 (His-tagged) N30A (protein)
chain: B1 chain with N29A, A100N
B5: nanobody hCD11bNb1 (His-tagged) I29A (protein)
chain: B1 chain with I28A, A100N

Biological target: human integrin αMβ2 headpiece fragment, P11215;P05107
Assay: BLI competition assay
Conditions: chain shown with the change; 20 nM αMβ2 HP preincubated with 10-fold molar excess of nanobody variant; immobilized biotinylated avi-tagged WT hCD11bNb1; signal is HP binding to the sensor …; parent: est. 0.31; read off a plot

| response [nm] | Binder |
| --- | --- |
| 1.2 | B1 |
| 1.2 | B2 |
| 1.1 | B3 |
| 0.98 | B4 |
| 0.45 | B5 |
